Test results as given in PMC2779590.

Target: stable 100 kDa N-terminal fragment of CagA (Helicobacter pylori (strain not stated)) (UniProt P55980)
Test: SPR

Sequence of stable 100 kDa N-terminal fragment of CagA (Helicobacter pylori (strain not stated)) (P55980 1-885 limits assumed): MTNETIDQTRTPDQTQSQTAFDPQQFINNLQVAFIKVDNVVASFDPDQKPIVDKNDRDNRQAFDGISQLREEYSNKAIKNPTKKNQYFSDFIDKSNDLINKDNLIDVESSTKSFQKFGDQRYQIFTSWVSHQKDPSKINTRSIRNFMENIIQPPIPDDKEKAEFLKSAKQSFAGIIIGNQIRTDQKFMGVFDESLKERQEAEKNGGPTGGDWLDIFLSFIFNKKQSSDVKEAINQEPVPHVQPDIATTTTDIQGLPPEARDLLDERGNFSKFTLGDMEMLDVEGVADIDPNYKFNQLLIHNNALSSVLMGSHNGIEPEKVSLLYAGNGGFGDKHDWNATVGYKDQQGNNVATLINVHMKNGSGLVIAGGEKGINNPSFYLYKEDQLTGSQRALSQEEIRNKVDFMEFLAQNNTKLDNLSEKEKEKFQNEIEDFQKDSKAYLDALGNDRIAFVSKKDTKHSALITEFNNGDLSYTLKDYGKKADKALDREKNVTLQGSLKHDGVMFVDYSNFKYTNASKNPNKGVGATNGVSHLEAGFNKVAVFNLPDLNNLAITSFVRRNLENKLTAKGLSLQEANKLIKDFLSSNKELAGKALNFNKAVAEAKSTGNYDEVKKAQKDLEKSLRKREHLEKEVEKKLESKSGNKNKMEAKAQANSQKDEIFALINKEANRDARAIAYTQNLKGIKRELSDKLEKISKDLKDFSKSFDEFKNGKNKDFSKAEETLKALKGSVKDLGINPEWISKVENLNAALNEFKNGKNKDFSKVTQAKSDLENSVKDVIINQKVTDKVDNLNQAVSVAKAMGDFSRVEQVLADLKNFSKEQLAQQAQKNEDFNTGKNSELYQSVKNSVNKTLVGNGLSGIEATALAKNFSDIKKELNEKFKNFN

Substance: purified human α5β1 integrin (from placenta) (from UniProt P05556 21-798) (complex)
- Kd: 0.153 nM

Substance: purified human αVβ3 integrin (from placenta) (from UniProt P05106 27-788) (complex)
- Kd: 33.4 nM
